First the molecules themselves.
B1: Cyclin-dependent kinase 4 (Homo sapiens), P11802 (parent)
chain: MATSRYEPVAEIGVGAYGTVYKARDPHSGHFVALKSVRVPNGGGGGGGLPISTVREVALLRRLEAFEHPNVVRLMDVCATSRTDREIKVTLVFEHVDQDLRTYLDKAPPPGLPAETIKDLMRQFLRGLDFLHANCIVHRDLKPENILVTSGGTVKLADFGLARIYSYQMALTPVVVTLWYRAPEVLLQSTYATPVDMWSVGCIFAEMFRRKPLFCGNSEADQLGKIFDLIGLPPEDDWPRDVSLPRGAFPPRGPRPVQSVVPEMEESGAQLLLEMLTFNPHKRISAFRALQHSYLHKDEGNPE
partner: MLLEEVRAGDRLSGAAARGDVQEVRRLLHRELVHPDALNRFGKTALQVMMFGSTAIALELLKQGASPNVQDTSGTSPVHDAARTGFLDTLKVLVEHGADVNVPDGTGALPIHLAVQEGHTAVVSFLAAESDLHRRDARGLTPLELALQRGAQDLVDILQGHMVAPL
B2: Emerin (Homo sapiens), P50402 (parent)
chain: MDNYADLSDTELTTLLRRYNIPHGPVVGSTRRLYEKKIFEYETQRRRLSPPSSSAASSYSFSDLNSTRGDADMYDLPKKEDALLYQSKGYNDDYYEESYFTTRTYGEPESAGPSRAVRQSVTSFPDADAFHHQVHDDDLLSSSEEECKDRERPMYGRDSAYQSITHYRPVSASRSSLDLSYYPTSSSTSFMSSSSSSSSWLTRRAIRPENRAPGAGLGQDRQVPLWGQLLLFLVFVIVLFFIYHFMQAEEGNPF

The text below walks through data of IntAct's records for PubMed 25910212.

In one test the parent is B1. The conditions noted are these: with cdn2d_human CDKN2D.
As to MATSRYEPVAEIGVGAYGTVYKARDPHSGHFVALKSVRVPSGGGGGGGLPISTVREVALLRRLEAFEHPNVVRLMDVCATSRTDREIKVTLVFEHVDQDLRTYLDKAPPPGLPAETIKDLMRQFLRGLDFLHANCIVHRDLKPENILVTSGGTVKLADFGLARIYSYQMALTPVVVTLWYRAPEVLLQSTYATPVDMWSVGCIFAEMFRRKPLFCGNSEADQLGKIFDLIGLPPEDDWPRDVSLPRGAFPPRGPRPVQSVVPEMEESGAQLLLEMLTFNPHKRISAFRALQHSYLHKDEGNPE [N41S], the “effect of a mutation on the interaction” value is given as “with no effect”.

Another test covers variants of B2. The conditions noted are these: with vapb_human VAPB.
Consider MDNYADLSDTELTTLLRRYNIPHGPVVGSTRRLYEKKIFEYETQRRRLSPPSSSAASSYSFSDLNSTRGDADMYDLPKKEDALLYQSKGYNDDYYEESYFTTRTYGEPESAGPSRAVRQSVTSFPDADAFHHQVHDDDLLSSSEEECKDRERPMYGRDSAYQSITHYRPVSASRSSLDLSYYHTSSSTSFMSSSSSSSSWLTRRAIRPENRAPGAGLGQDRQVPLWGQLLLFLVFVIVLFFIYHFMQAEEGNPF [P183H], for which the “effect of a mutation on the interaction” value was “with no effect”.

Consider MDNYADLSDTELTTLLRRYNIPHGPVVGSTRRLYEKKIFEYETQRRRLSPPSSSAASSYSFSDLNSTRGDADMYDLPKKEDALLYQSKGYNDDYYEESYFTTRTYGEPESAGPSRAVRQSVTSFPDADAFHHQVHDDDLLSSSEEECKDRERPMYGRDSAYQSITHYRPVSASRSSLDLSYYTTSSSTSFMSSSSSSSSWLTRRAIRPENRAPGAGLGQDRQVPLWGQLLLFLVFVIVLFFIYHFMQAEEGNPF [P183T], for which the “effect of a mutation on the interaction” value is on record as “with no effect”.

Variants of B2 are the subject of another test. The note with it: with tri42_human TRIM42, Q8IWZ5.
Sequence of tri42_human TRIM42, Q8IWZ5 (Q8IWZ5 whole entry): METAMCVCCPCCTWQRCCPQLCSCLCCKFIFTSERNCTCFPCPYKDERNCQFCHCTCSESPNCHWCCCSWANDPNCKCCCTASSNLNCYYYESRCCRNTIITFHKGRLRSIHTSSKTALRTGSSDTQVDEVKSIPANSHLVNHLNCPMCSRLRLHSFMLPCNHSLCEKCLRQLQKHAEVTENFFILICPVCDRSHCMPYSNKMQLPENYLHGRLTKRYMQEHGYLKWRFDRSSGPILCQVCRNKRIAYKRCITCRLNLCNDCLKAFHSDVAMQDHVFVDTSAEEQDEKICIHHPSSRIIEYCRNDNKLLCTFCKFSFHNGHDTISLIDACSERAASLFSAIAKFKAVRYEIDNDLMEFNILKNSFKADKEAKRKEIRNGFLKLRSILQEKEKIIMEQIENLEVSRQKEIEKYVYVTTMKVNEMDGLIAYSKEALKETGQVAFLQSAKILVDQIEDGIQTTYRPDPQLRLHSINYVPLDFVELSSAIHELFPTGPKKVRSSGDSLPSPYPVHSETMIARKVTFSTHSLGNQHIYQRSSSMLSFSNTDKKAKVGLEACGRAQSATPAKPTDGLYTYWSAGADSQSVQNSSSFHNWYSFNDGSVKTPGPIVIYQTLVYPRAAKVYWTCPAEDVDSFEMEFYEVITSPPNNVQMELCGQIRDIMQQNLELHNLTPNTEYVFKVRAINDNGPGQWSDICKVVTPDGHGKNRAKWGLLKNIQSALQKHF
For the variant MDNYADLSDTELTTLLRRYNIPHGPVVGSTRRLYEKKIFEYETQRRRLSPPSSSAASSYSFSDLNSTRGDADMYDLPKKEDALLYQSKGYNDDYYEESYFTTRTYGEPESAGPSRAVRQSVTSFPDADAFHHQVHDDDLLSSSEEECKDRERPMYGRDSAYQSITHYRPVSASRSSLDLSYYHTSSSTSFMSSSSSSSSWLTRRAIRPENRAPGAGLGQDRQVPLWGQLLLFLVFVIVLFFIYHFMQAEEGNPF [P183H], the “effect of a mutation on the interaction” value was “with no effect”.

Take MDNYADLSDTELTTLLRRYNIPHGPVVGSTRRLYEKKIFEYETQRRRLSPPSSSAASSYSFSDLNSTRGDADMYDLPKKEDALLYQSKGYNDDYYEESYFTTRTYGEPESAGPSRAVRQSVTSFPDADAFHHQVHDDDLLSSSEEECKDRERPMYGRDSAYQSITHYRPVSASRSSLDLSYYTTSSSTSFMSSSSSSSSWLTRRAIRPENRAPGAGLGQDRQVPLWGQLLLFLVFVIVLFFIYHFMQAEEGNPF [P183T]: the “effect of a mutation on the interaction” value is given as “with no effect”.

The variants in a further test derive from B2. The note with it: with stx4_human STX4, Q12846.
Sequence of stx4_human STX4, Q12846 (Q12846 whole entry): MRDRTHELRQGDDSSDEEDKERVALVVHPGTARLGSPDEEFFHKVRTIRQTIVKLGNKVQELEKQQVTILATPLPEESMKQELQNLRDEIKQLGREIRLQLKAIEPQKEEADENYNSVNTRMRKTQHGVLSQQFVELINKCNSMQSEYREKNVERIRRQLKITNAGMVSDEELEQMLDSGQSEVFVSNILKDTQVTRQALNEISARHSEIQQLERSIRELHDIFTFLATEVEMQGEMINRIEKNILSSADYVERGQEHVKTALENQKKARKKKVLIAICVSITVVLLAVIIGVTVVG
MDNYADLSDTELTTLLRRYNIPHGPVVGSTRRLYEKKIFEYETQRRRLSPPSSSAASSYSFSDLNSTRGDADMYDLPKKEDALLYQSKGYNDDYYEESYFTTRTYGEPESAGPSRAVRQSVTSFPDADAFHHQVHDDDLLSSSEEECKDRERPMYGRDSAYQSITHYRPVSASRSSLDLSYYHTSSSTSFMSSSSSSSSWLTRRAIRPENRAPGAGLGQDRQVPLWGQLLLFLVFVIVLFFIYHFMQAEEGNPF [P183H]: the “effect of a mutation on the interaction” value was “with no effect”.

Consider MDNYADLSDTELTTLLRRYNIPHGPVVGSTRRLYEKKIFEYETQRRRLSPPSSSAASSYSFSDLNSTRGDADMYDLPKKEDALLYQSKGYNDDYYEESYFTTRTYGEPESAGPSRAVRQSVTSFPDADAFHHQVHDDDLLSSSEEECKDRERPMYGRDSAYQSITHYRPVSASRSSLDLSYYTTSSSTSFMSSSSSSSSWLTRRAIRPENRAPGAGLGQDRQVPLWGQLLLFLVFVIVLFFIYHFMQAEEGNPF [P183T], for which the “effect of a mutation on the interaction” value is on record as “with no effect”.

Variants of B2 are the subject of a further test. The note with it: with meox2_human MEOX2, P50222.
Sequence of meox2_human MEOX2, P50222 (P50222 whole entry): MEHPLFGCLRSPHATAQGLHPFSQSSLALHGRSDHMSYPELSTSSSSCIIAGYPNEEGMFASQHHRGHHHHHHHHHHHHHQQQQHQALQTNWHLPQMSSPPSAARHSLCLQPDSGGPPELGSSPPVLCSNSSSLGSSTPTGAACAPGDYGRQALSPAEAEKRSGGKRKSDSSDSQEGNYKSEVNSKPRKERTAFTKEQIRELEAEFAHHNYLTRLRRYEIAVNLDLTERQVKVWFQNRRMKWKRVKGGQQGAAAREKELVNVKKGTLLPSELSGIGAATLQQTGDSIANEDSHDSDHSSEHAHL
On to MDNYADLSDTELTTLLRRYNIPHGPVVGSTRRLYEKKIFEYETQRRRLSPPSSSAASSYSFSDLNSTRGDADMYDLPKKEDALLYQSKGYNDDYYEESYFTTRTYGEPESAGPSRAVRQSVTSFPDADAFHHQVHDDDLLSSSEEECKDRERPMYGRDSAYQSITHYRPVSASRSSLDLSYYHTSSSTSFMSSSSSSSSWLTRRAIRPENRAPGAGLGQDRQVPLWGQLLLFLVFVIVLFFIYHFMQAEEGNPF [P183H], for which the “effect of a mutation on the interaction” value is “with no effect”.

As for MDNYADLSDTELTTLLRRYNIPHGPVVGSTRRLYEKKIFEYETQRRRLSPPSSSAASSYSFSDLNSTRGDADMYDLPKKEDALLYQSKGYNDDYYEESYFTTRTYGEPESAGPSRAVRQSVTSFPDADAFHHQVHDDDLLSSSEEECKDRERPMYGRDSAYQSITHYRPVSASRSSLDLSYYTTSSSTSFMSSSSSSSSWLTRRAIRPENRAPGAGLGQDRQVPLWGQLLLFLVFVIVLFFIYHFMQAEEGNPF [P183T], the “effect of a mutation on the interaction” value was “with no effect”.

A further test covers variants of B2. The note with it: with ccd33_human CCDC33, Q8N5R6.
Sequence of ccd33_human CCDC33, Q8N5R6 (Q8N5R6 whole entry): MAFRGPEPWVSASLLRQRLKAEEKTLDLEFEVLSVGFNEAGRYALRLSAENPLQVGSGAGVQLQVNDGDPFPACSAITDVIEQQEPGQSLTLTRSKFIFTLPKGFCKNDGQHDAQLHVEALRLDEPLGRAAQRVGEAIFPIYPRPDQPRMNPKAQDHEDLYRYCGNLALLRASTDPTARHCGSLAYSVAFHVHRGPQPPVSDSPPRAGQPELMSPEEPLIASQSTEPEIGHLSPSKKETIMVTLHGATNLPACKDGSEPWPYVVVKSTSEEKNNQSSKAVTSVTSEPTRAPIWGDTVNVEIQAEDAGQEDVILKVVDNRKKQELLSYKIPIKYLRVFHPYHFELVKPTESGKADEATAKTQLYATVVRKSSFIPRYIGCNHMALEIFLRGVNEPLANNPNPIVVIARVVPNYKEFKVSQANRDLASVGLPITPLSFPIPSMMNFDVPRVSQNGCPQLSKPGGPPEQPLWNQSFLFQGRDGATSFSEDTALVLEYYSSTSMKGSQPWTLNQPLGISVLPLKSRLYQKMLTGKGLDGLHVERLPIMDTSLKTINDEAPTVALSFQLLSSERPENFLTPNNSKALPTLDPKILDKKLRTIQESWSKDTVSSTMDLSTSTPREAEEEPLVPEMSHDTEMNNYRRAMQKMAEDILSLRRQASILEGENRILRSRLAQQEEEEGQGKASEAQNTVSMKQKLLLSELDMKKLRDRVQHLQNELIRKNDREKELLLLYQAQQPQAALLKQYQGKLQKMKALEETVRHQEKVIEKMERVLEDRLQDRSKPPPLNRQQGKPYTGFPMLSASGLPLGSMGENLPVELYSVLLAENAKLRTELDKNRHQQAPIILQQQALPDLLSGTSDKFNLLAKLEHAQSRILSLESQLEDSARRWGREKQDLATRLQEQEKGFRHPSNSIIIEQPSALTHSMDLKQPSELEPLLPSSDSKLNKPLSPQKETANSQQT
For MDNYADLSDTELTTLLRRYNIPHGPVVGSTRRLYEKKIFEYETQRRRLSPPSSSAASSYSFSDLNSTRGDADMYDLPKKEDALLYQSKGYNDDYYEESYFTTRTYGEPESAGPSRAVRQSVTSFPDADAFHHQVHDDDLLSSSEEECKDRERPMYGRDSAYQSITHYRPVSASRSSLDLSYYHTSSSTSFMSSSSSSSSWLTRRAIRPENRAPGAGLGQDRQVPLWGQLLLFLVFVIVLFFIYHFMQAEEGNPF [P183H], the “effect of a mutation on the interaction” value is reported as “with no effect”.

Consider MDNYADLSDTELTTLLRRYNIPHGPVVGSTRRLYEKKIFEYETQRRRLSPPSSSAASSYSFSDLNSTRGDADMYDLPKKEDALLYQSKGYNDDYYEESYFTTRTYGEPESAGPSRAVRQSVTSFPDADAFHHQVHDDDLLSSSEEECKDRERPMYGRDSAYQSITHYRPVSASRSSLDLSYYTTSSSTSFMSSSSSSSSWLTRRAIRPENRAPGAGLGQDRQVPLWGQLLLFLVFVIVLFFIYHFMQAEEGNPF [P183T], for which the “effect of a mutation on the interaction” value is reported as “with no effect”.
